Consider four molecules from patent US7407933B2, “Drug containing angiotensin convertase” (priority 2002, dated 2008).

Residue numbers refer to the chain shown, from its start. In names and notes the source's numbering stands.

One data set deals with sperm-zona binding. Description: Sperm-egg (zona pellucida) binding assay. It counts as cell-based, mouse. The method, then:
All gametes were placed and handled within TYH medium. […] were isolated from wild-type mice and ACE knockout mice, and dispersed in 250 μl of medium. After sperms were floated for 15 minutes, transferred to 1.5 ml medium and incubated for at least 1 hour. Eggs were separated from superovulated mice and treated with 1 mg/ml of hyaluronidase (Sigma) on THY medium for removing laminated cells. Incubated sperms (approximately 2.0×10^6 sperm/ml) were treated for 90 min with 0.2 U wild-type ACE (ACE-WT), 0.2 U ACE-E414D, 1.0 IU/ml PI-PLC, or […] PI-PLC with 4 mM inositol monophosphate (Sigma), 4 mM inositol monophosphate, and buffer (PBS) alone. For the sperm-egg (zona pellucida) binding assay, gametes were co-incubated in a TYH droplet covered with mineral oil for 1 h, washed gently in PBS and fixed with 4% paraformaldehyde/PBS. The oocytes were visualized at 200× under a light microscope (Olympus) and the number of sperms was counted at a focus showing the widest diameter of eggs.
In addition, the effect of ACE on sperm-egg binding was examined. That is, Epididymal sperms of both wild-type and knockout mice were treated with either wild-type or peptidase-inactivated (E414D) ACEs or PI-PLC and then incubated with unfertilized eggs from C57BL/6 mice. These treatments had no effects on wild-type sperm-zona binding.

The test system of the next data set is DAF. The following applies: erythrocyte having prominent acylation; cited from earlier work.
For another data set, the system named is PLAP. The experiment in a line: PLAP conversion assay (GPI-anchored protein releasing activity). Particulars: immunoblotting of PLAP. In kind it is biochemical. The method, then: This assay uses a nature of nonionic detergent, TritonX-114, which distributes water-soluble molecules and hydrophobia molecules soluble to detergent. By the PLAP conversion assay, GPI-anchored protein releasing activity in a course of purification was monitored. PLAP was prepared by expressing cDNA in COS7 cells, extracted by buffer containing 20 mM Tris, pH 8.0, 150 mM NaCl, 1% TritonX-114, Complete™ protease-inhibitor and the detergent-soluble phase was collected after partitioning at 37° C. PLAP was purified by DEAE-cellulose ionic exchange liquid chromatography (LC) (elution buffer: […] tris pH8.0, 0.1% TritonX-100, 0 mM-500 mM NaCl gradient) and anti-PLAP antibody column (antibody: rabbit anti-PLAP polyclonal antibody, Biomeda; Column: Hitrap NHS-Activated HP, Amercham Bioscience; elution buffer: 100 mM glycine pH2.8). Using detergent-soluble PLAP protein as substrate performed assay. PLAP activity was measured with an alkaline phosphatase detection kit (Nacalai tesque). The conversion reaction was performed in 100 mM Tris, pH 7.5, 5 mM CaCl2, 150 mM NaCl and 0.3 IU/ml of PLAP for 90 min at 37° C. The reaction was stopped by adding TritonX-114 at a final concentration of 2% and 1 mM EDTA, followed by microcentrifugation at 25° C. The water-soluble phase was collected and PLAP activity was measured by the alkaline phosphatase detection kit. […]
(A western blot detects proteins with antibodies after separation by electrophoresis.)

Data set [1] is described as follows: Peptidase activity of ACE. It counts as biochemical. The following applies: relative to wild-type ACE. Here is the method:
FIG. 7 is a measurement of peptidase activity (Pase). The E414D is a mutant that Glu414 in the peptidase active site was substituted to Asp. WT, wild-type ACE-T. Procedures were accorded with the description of Kasahara and Ashihara, Clin Chem. 27:1922-1925.
The obtained PCR product encodes a FLAG-tagged version of the soluble testicular isoform. The cDNA for peptidase-inactivated mutant with amino acid Glu414 replaced by Asp was prepared by the site-directed mutagenesis with the mutation promer: 5′-cttggtgatag cgcaccacga tatgggccac atccagtatt tcatgca-3′ (SEQ ID NO: 3). The culture supernatants of COS7 cells transfected with the ACE cDNAs were collected and recombinant ACEs were purified by anti-FLAG M2-agarose affinity column (Sigma). The somatic isoform of ACE (ACE-S) from rabbit lung (Sigma A-6778) was also used according to the manufacturer's protocol. The peptidase activity of the ACE was measured by the reported method (Kawahara and Ashihara, Clin. Chem. 27:1922-1925, 1981). 1.9. FACS Analysis

The test system of the next data set is prion protein. The following applies: HEK293 cells, 1.0 U/ml.
Data set [2] has as its system EGFP-GPI. The experiment in a line: Radiolabeling analysis of released EGFP-GPI from F9 cells. The following applies: filipin-pretreated F9 cells. It counts as cell-based. The method, then: F9 cells expressing EGFP-GPI were metabolically labeled with 0.2 mCi/ml of [^32P]-orthophosphoric acid (Amersham Bioscience) or 0.1 mCi/ml of [^3H]-ethanolamine (Amersham Bioscience) for 16 h. Filipin-pretreated cells were incubated with 0.5 μM of ACE, 1.0 IU/ml of PI-PLC or 10% lysate of mouse submaxillary gland containing mouse glandular kallikrein (mGK; enzyme digesting EGFP at near C-terminus) for 1 h at 37° C. Released EGFP was immunoprecipitated with anti-GFP antibody, subjected to SDS-PAGE and transferred onto nitrocellulose membrane. The quantity of EGFP-GPI protein was evaluated by measuring the density of bands detected on EGFP immunoblotting by using a densitometer (Molecular Device) and radioactivity of the cognate band was determined by a liquid scintillation counter.
Therefore, the F9 cells expressing EGFP-GPI were metabolically labeled with [^32P]-phosphate or [^3H]-ethanolamine, and treated with ACE, PI-PLC or mGK. Then, the released proteins from the cells were applied to EGFP immunoblotting, to measure radioactivity for each band (FIG. 15). Measurements were performed at least four times, and the almost same results were obtained. Although the released EGFP-GPI products with ^32P or ^3H labeling were not detected by mGK treatments, both were detected by ACE treatment or PI-PLC treatment, indicating the presence of a portion of GPI-anchor structure in the ACE-released molecules.

Another data set relates to CD59. Description: FACS analysis of shedding, CD59 on HeLa cells. It counts as cell-based, human. The following applies: filipin pre-treated HeLa cells.
Data set [3] has as its system EGFP-GPI. The experiment in a line: FACS analysis of shedding, EGFP-GPI on F9 cells. In kind it is cell-based. The following applies: without filipin pre-treatment. A general note: A flow cytometer gives signals particle by particle.
The subject of a further data set is E-cadherin. Description: FACS analysis of shedding, E-cadherin on F9 cells. It counts as cell-based, mouse.

`O=P(O)(O)O[C@@H]1[C@@H](O)[C@H](O)[C@@H](O)[C@H](O)[C@@H]1O` [inositol monophosphate, reference compound]: the “inhibition of the PI-PLC effect on egg binding of ACE knockout sperm” value in the data set with sperm-zona binding (4 mM with PI-PLC) is “inhibition”.

B1: GPI-PLD: only mammalian enzyme known so far showing GPI-anchor-cleaving activity (protein, UniProt P80108 24-840, looked up)
Phosphatidylinositol-glycan-sp …: CGLSTHVEIGHRALEFLQLHNGRVNYRELLLEHQDAYQAGIVFPDCFYPSICKGGKFHDVSESTHWTPFLNASVHYIRENYPLPWEKDTEKLVAFLFGITSHMAADVSWHSLGLEQGFLRTMGAIDFHGSYSEAHSAGDFGGDVLSQFEFNFNYLARRWYVPVKDLLGIYEKLYGRKVITENVIVDCSHIQFLEMYGEMLAVSKLYPTYSTKSPFLVEQFQEYFLGGLDDMAFWSTNIYHLTSFMLENGTSDCNLPENPLFIACGGQQNHTQGSKMQKNDFHRNLTTSLTESVDRNINYTERGVFFSVNSWTPDSMSFIYKALERNIRTMFIGGSQLSQKHVSSPLASYFLSFPYARLGWAMTSADLNQDGHGDLVVGAPGYSRPGHIHIGRVYLIYGNDLGLPPVDLDLDKEAHRILEGFQPSGRFGSALAVLDFNVDGVPDLAVGAPSVGSEQLTYKGAVYVYFGSKQGGMSSSPNITISCQDIYCNLGWTLLAADVNGDSEPDLVIGSPFAPGGGKQKGIVAAFYSGPSLSDKEKLNVEAANWTVRGEEDFSWFGYSLHGVTVDNRTLLLVGSPTWKNASRLGHLLHIRDEKKSLGRVYGYFPPNGQSWFTISGDKAMGKLGTSLSSGHVLMNGTLKQVLLVGAPTYDDVSKVAFLTVTLHQGGATRMYALTSDAQPLLLSTFSGDRRFSRFGGVLHLSDLDDDGLDEIIMAAPLRIADVTSGLIGGEDGRVYVYNGKETTLGDMTGKCKSWITPCPEEKAQYVLISPEASSRFGSSLITVRSKAKNQVVIAAGRSSLGARLSGALHVYSLGSD
As to B1, in the data set on DAF, the “release of DAF from the intact erythrocyte” value is “could not release”.

B2: ACE (E414D): peptidase-inactivated mutant ACE with amino acid Glu414 replaced by Asp (protein, listed as Mus musculus)
chain: MGQGWATPGLPSFLFLLLCCGHHLLVLSQVATDHVTANQGITNQATTRSQTTTHQATIDQTTQIPNLETDEAKADRFVEEYDRTAQVLLNEYAEANWQYNTNITIEGSKILLEKSTEVSNHTLKYGTRAKTFDVSNFQNSSIKRIIKKLQNLDRAVLPPKELEEYNQILLDMETTYSLSNICYTNGTCMPLEPDLTNMMATSRKYEELLWAWKSWRDKVGRAILPFFPKYVEFSNKIAKLNGYTDAGDSWRSLYESDNLEQDLEKLYQELQPLYLNLHAYVRRSLHRHYGSEYINLDGPIPAHLLGNMWAQTWSNIYDLVAPFPSAPNIDATEAMIKQGWTPRRIFKEADNFFTSLGLLPVPPEFWNKSMLEKPTDGREVVCHPSAWDFYNGKDFRIKQCTSVNMEDLVIAHHDMGHIQYFMQYKDLPVTFREGANPGFHEAIGDIMALSVSTPKHLYSLNLLSTEGSGYEYDINFLMKMALDKIAFIPFSYLIDQWRWRVFDGSITKENYNQEWWSLRLKYQGLCPPVPRSQGDFDPGSKFHVPANVPYVRYFVSFIIQFQFHEALCRAAGHTGPLHKCDIYQSKEAGKLLADAMKLGYSKPWPEAMKLITGQPNMSASAMMNYFKPLTEWLVTENRRHGETLGWPEYNWAPNTARAEGSTAESNRVNFLGLYLEPQQARVGQWVLLFLGVALLVATVGLAHRLYNIRNHHSLRRPHRGPQFGSEVELRHSLAHRLYNIRNHHSLRRPHRGPQFGSEVELRHS
Take B2: the “GPI-anchored protein releasing activity compared with wild-type ACE” value in the data set on PLAP is reported as “not changed”. Moreover, in the data set on sperm-zona binding (epididymal sperm of ACE knockout mice, eggs from C57BL/6 mice), the “sperm-zona binding of ACE knockout sperm” value was “vigorously restored”. Besides, in [1], the “peptidase activity compared with wild-type ACE” value is given as “less than 1/1000”.

B3: ACE: angiotensin-converting enzyme, isoform not named at the place (ACE-S in the FACS tests of b107/b108) (protein, listed as Mus musculus)
chain: B2 chain with D414E
B3: in the data set with prion protein, the “shedding of prion protein from cell surface” value is “efficiently shed”. Further, the “radioactivity of released products compared with PI-PLC-released molecules, labeled on the ethanolamine” value in the data set on EGFP-GPI [2] (3H ethanolamine label) is “a half”. Also, the “radioactivity of released products compared with PI-PLC-released molecules, labeled on the phosphate” value in the data set on EGFP-GPI [2] (32P phosphate label) was “about one-third”. The “released EGFP-GPI products with 32P or 3H labeling” value in the data set on EGFP-GPI [2] is reported as “detected”. In addition, the “dose dependence of CD59 shedding” value with CD59 is given as “dose-dependent”. The “effect on EGFP-GPI expression” value in the data set with EGFP-GPI [3] is “little effect”. The “effect on the transmembrane protein E-cadherin” value with E-cadherin is recorded as “no effect”.
